T1: recombinant human RSPO3 (human, UniProt Q9BXY4 22-272)
T1 construct: also called rhRSPO3; hRSPO3
T1 sequence: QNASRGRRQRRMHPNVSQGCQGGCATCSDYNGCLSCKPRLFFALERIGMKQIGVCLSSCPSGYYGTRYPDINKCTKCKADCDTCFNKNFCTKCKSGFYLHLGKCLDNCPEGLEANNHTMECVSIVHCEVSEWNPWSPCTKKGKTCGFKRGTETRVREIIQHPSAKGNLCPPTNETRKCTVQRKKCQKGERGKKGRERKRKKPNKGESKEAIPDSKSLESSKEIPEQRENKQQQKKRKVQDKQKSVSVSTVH

T2: mouse RSPO3 (mouse, UniProt Q2TJ95 22-277, limits assumed)
T2 construct: also called mRSPO3; murine RSPO3
T2 sequence (looked up): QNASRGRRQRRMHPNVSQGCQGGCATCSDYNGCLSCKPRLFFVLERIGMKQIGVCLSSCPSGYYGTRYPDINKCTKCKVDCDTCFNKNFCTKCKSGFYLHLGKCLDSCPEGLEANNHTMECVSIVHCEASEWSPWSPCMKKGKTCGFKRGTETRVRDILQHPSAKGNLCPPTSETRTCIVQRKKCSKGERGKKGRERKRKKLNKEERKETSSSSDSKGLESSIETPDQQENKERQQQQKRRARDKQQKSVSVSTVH

T3: cynomolgus RSPO3 (cynomolgus, UniProt A0A2K5UTQ7 22-273)
T3 construct: also called cynoRSPO3; rcynoRSPO3
T3 sequence: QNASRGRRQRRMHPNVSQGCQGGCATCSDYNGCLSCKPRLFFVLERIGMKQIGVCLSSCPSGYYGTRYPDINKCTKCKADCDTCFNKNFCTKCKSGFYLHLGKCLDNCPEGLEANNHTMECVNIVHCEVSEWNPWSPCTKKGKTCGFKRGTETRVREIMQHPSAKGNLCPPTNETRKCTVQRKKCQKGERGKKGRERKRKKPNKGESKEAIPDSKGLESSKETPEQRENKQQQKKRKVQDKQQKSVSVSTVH

T4: FLAG-tagged human RSPO3 (Genentech) (human, UniProt Q9BXY4 22-272)
T4 construct: also called hRSPO3; RSPO3 coated plates; not shown: FLAG tag
T4 sequence: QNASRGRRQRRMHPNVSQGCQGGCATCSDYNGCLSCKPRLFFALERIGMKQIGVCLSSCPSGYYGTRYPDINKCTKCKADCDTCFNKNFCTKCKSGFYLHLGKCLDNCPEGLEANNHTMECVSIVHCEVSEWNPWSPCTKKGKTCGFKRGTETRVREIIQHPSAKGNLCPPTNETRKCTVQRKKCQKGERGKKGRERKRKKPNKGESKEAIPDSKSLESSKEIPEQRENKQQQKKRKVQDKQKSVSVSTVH

T5: human RSPO3 with C-terminal HA tag, stably expressed in 293 cells (human, UniProt Q9BXY4 22-272)
T5 construct: Whole open reading frame expressed in HEK-293 cells (high, medium, low); FFPE pellets; also called hRSPO3; RSPO3 Hi
T5 sequence: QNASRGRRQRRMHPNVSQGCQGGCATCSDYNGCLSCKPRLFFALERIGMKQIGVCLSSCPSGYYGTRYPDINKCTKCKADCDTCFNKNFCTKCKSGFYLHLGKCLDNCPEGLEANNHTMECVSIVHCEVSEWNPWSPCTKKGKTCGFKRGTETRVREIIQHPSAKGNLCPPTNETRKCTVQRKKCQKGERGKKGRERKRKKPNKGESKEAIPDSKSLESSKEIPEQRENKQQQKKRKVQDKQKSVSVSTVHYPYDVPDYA


Columns and labels:
cynomolgus RSPO2 [1] = biological target: T6, cynomolgus RSPO2 (cynomolgus, UniProt G7PCH9 22-243); experiment: SPR (Biacore) with the Fab; table row RSPO2, Affinity (nM) Fab
T6 construct: also called cynoRSPO2; rcynoRSPO2
Method: (§1) For kinetic measurements, two-fold serial dilutions of anti-RSPO Fabs were injected in HBS-P buffer (0.01M HEPES pH 7.4, 0.15M NaCl, 0.005% surfactant P20) at 25° C. with a flow rate of 30 μl/min. Association rates (kₒₙ) and dissociation rates (koff) were calculated using a simple one-to-one Langmuir binding model (BIAcore Evaluation Software version 3.2). The equilibrium dissociation constant (KD) was calculated as the ratio koff/kₒₙ.
(§2) Surface plasmon resonance was used to confirm binding specificities and affinities to human, mouse, and cynomolgus RSPOs. Fab fragments from antibody clones were digested, purified, and then assayed using a BIAcore™-2000 instrument for binding to recombinant proteins. Antibodies fell into three groups: those specific to RSPO2, those specific to RSPO3, and those with some degree of cross-reactivity (FIG. 5).

mouse RSPO2 [2] = biological target: T7, mouse RSPO2 (mouse, UniProt Q8BFU0 22-205, limits assumed); experiment: as above
T7 construct: also called mRSPO2
Method: as §1, §2

recombinant human RSPO2 [3] = biological target: T8, recombinant human RSPO2 (human, UniProt Q6UXX9 22-243); experiment: as above
T8 construct: Recombinant protein of the WNT reporter assays and of the Octet binning (R&D Systems; biotinylated for Octet); also called rhRSPO2; hRSPO2
Method: as §1, §2

recombinant human RSPO3 [4] = biological target: T1, recombinant human RSPO3; experiment: SPR (Biacore) with the Fab; table row RSPO3, Affinity (nM) Fab
Method: as §1, §2

mouse RSPO3 [5] = biological target: T2, mouse RSPO3; experiment: as above
Method: as §1, §2

cynomolgus RSPO3 [6] = biological target: T3, cynomolgus RSPO3; experiment: as above
Method: as §1, §2

[7] = biological target: T4, FLAG-tagged human RSPO3 (Genentech); experiment: competitive binding ELISA: titrated against biotinylated RNF43-Flag (RNF43-ECD) binding to plate-coated hRSPO3; signal = bound RNF43, normalized OD
[8] = biological target: T9, FLAG-tagged human RSPO2 (Genentech) (human, UniProt Q6UXX9 22-243); experiment: competitive binding ELISA: titrated against biotinylated RNF43-Flag (RNF43-ECD) binding to plate-coated hRSPO2; signal = bound RNF43, normalized OD
T9 construct: also called hRSPO2; RSPO2 coated plates; not shown: FLAG tag

[9] = biological target: T5, human RSPO3 with C-terminal HA tag, …; experiment: IHC, FFPE 293 cell pellet, RSPO3 Hi; - = not significant staining
cynomolgus RSPO2 [10] = biological target: T6, cynomolgus RSPO2; experiment: cell-based or functional assay
recombinant human RSPO3 [11] = biological target: T1, recombinant human RSPO3; experiment: cell-based or functional assay
mouse RSPO3 [12] = biological target: T2, mouse RSPO3; experiment: cell-based or functional assay
cynomolgus RSPO3 [13] = biological target: T3, cynomolgus RSPO3; experiment: cell-based or functional assay
mouse RSPO2 [14] = biological target: T7, mouse RSPO2; experiment: cell-based or functional assay
recombinant human RSPO2 [15] = biological target: T8, recombinant human RSPO2; experiment: cell-based or functional assay

T7 sequence (Q8BFU0 22-205 limits assumed): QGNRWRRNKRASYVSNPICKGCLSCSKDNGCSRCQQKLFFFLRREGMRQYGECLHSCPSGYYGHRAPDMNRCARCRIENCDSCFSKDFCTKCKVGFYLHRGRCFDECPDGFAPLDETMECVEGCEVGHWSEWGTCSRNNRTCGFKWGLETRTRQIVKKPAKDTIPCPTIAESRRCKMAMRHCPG
T8 sequence (Q6UXX9 22-243): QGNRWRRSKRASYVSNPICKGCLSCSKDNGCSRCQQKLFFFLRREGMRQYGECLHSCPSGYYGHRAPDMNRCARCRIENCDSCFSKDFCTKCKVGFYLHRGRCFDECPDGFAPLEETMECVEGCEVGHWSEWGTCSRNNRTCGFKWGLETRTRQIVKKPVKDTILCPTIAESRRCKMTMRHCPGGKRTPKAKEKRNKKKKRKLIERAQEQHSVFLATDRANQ
T6 sequence (G7PCH9 entry or part of it): as the sequence (Q6UXX9 22-243) above, with V160A, L165P, T178A counted along it
T9 sequence (Q6UXX9 22-243): as the sequence (Q6UXX9 22-243) above

Row | Kd (cynomolgus RSPO2 [1]) | Kd (mouse RSPO2 [2]) | Kd (recombinant human RSPO2 [3]) | Kd (recombinant human RSPO3 [4]) | Kd (mouse RSPO3 [5]) | Kd (cynomolgus RSPO3 [6]) | binding result (recombinant human RSPO3 [4]) | binding result (mouse RSPO3 [5]) | binding result (cynomolgus RSPO3 [6]) | binding result (mouse RSPO2 [2]) | Binder | also measured
1 | 62 nM | 66 nM | 80 nM | 0.7 nM | 1.42 nM | 2.43 nM |  |  |  |  | Fab 26E11 (Fab, V domains shown, Fab expressed in E. coli for crystallography; also called 26E11 Fab) VH: EVQLQESGPSLVKPSQTLSLTCSVTGDSITSGYWSWIRKFPGNKLEFMGYISFSGKTYYIPSLKSRVSITRDTSKNQYYLQLNSVTTEDTATYYCATYHGYGGPWFAYWGQGTLVTVSS VL: DIKMTQSPSSMYASLGERVTITCKASQDIDSYLSWFQQKPGKSPKTLIYLTNRLIDGVPSRFSGSGSGQDYSLTINSLEYEDMGIYYCLQYDEFPVTFGAGTRLEIK | 
2 | 11 nM | 5.5 nM | 6.3 nM |  |  |  | no binding | no binding | no binding |  | 36D2 (Fab, V domains shown, also called Fab of 36D2; 36D2 Fab) VH: QIQLQESGPGLVKPSQSLSLTCSVTGNSITSSDWSWIRQFPGKKLEWMGYMNYGGGTYYNPSLENRISITRDTSKNQFFLHLKSVTTEDTATYYCARERPHPYAYFDVWGQGIQVTVSS VL: ELVFTQPQSVSGSLGQEISISCTRSSGNIGSNYVSWYQQQSSNKPRLLIYKFDQRPSGVPDRFSGSTDSSSNSGILTISRLQPEDEGDYYCLSGYDKYVFGSGTQLTLL | 
3 |  |  |  | 10.6 nM | 98 nM | 39 nM |  |  |  | no binding | 5E11 (Fab, V domains shown, also called Fab of 5E11; 5E11 Fab) VH: QVQLKQSGPGLVQPSQSLSITCTVSGFSLSSYAVHWVRQSPGEGLEWLGVIWSGGSTDYNAAFISRMSITKDNSKSQVFFKMNSLQADDTAIYFCARNDGYYYFDYWGQGTTLTVSS VL: DIVMTQSTSSLSASLGDRVTISCRASQDISNYLNWYQQKPDGTVKLLIYYTSRLHSGVPSRFSGSGSGTDYSLTISNLEKEDVATYFCQHGDTLPPTFGGGTKLEIK | binding result (cynomolgus RSPO2 [1]): no binding
4 |  |  |  | 17 nM | 63 nM | 70 nM |  |  |  | no binding | 5C2 (Fab, V domains shown, also called Fab of 5C2; 5C2 Fab) VH: EVQLQESGPGLVAPSQSLSITCTVSGFSLTSYGVHWVRQPPGKGLEWLGVIWTGGSTNYNSALMSRLSISKDNSKSQVFLKMNSLQTDDTAMYYCARVDGYYYFDYWGQGTTLTVSS VL: DIVMTQSTSSLSASLGDRVTISCRASQDISNYLNWYQQKPDGTVKLLIYYTSRLHSGVPSRFSGSGSGTDYSLTISNLEPEDIATYFCQQGDTLPPTFGGGTKLEIK | binding result (cynomolgus RSPO2 [1]): no binding
5 |  |  |  |  |  |  |  |  |  |  | RNF43 (receptor, kept apart from the biotinylated tracer m34; not shown: FLAG tag and any linker to it) GFGRTGLVLAAAVESERSAEQKAIIRVIPLKMDPTGKLNLTLEGVFAGVAEITPAEGKLMQSHPLYLCNASDDDNLEPGFISIVKLESPRRAPRPCLSLASKARMAGERGASAVLFDITEDRAAAEQLQQPLGLTWPVVLIWGNDAEKLMEFVYKNQKAHVRIELKEPPAWPDY | IC50 (read off the curve) [7]: ~0.5 µg/mL; IC50 (read off the curve) [8]: ~0.2 µg/mL
6 | 1.4 nM | 3.6 nM | 2.9 nM |  |  |  | no binding | no binding | no binding |  | 1A1 (Fab, V domains shown, also called Fab of 1A1; 1A1 Fab) VH: EVQLVESGGGLVKPEGSLKLSCVASGFTFSDYFMSWVRQAPGQGLEWVAHIYTKTYNYATYYSGSVKGRFSISRDDSRNMVYLQMNNLRTEDTATYYCTTDEDWYFDFWGQGTQVTVSS VL: QPVLTQSPSVSASLGASVKLTCTLSSQHSTNYIEWYQQHPDKSPKFLMQVRDGSHSKGDGTPDRFSGSSSGAHRYLSISNLQLEDEAIYYCGLSDVSLYLFGSGTQLTLL | 
7 |  |  |  |  |  |  |  |  |  |  | 11F11 (antibody, V domains shown, also called monoclonal antibody 11F11) VH: QVQLQQSGPQLVKPGFSVKFSCKASGITFTEYYVTWVKQRAGQGLEWVGDIDPENGDTDYNQKFQGKATITADKSSSTAYMELSSLTSEDSAVYYCATGYDYAFDSWGQGTLVTVSS VL: QPVLTQSPSASASLGASVKLTCTLSSQHSSYGITWLQQHPDKAPKCVMYLRSDGSHSKGDGIPDRFSGSSSGAHRYLSISNVQPEDEAIYFCVTYDSTVGVFGSGTQLTVP | binding result [9]: no binding; IC50, WNT luciferase reporter, bivalent antibody (cynomolgus RSPO2 [10]): 1.9 nM; IC50, WNT luciferase reporter, bivalent antibody (recombinant human RSPO3 [11]): > 500 nM; IC50, WNT luciferase reporter, bivalent antibody (mouse RSPO3 [12]): > 500 nM; IC50, WNT luciferase reporter, bivalent antibody (cynomolgus RSPO3 [13]): > 500 nM; IC50, WNT luciferase reporter, bivalent antibody (mouse RSPO2 [14]): > 500 nM; IC50, WNT luciferase reporter, bivalent antibody (recombinant human RSPO2 [15]): 0.179 nM
8 |  |  | 63 nM |  |  |  | no binding | no binding | no binding | no binding | 11F11 (Fab, V domains shown, also called Fab of 11F11; 11F11 Fab) VH: QVQLQQSGPQLVKPGFSVKFSCKASGITFTEYYVTWVKQRAGQGLEWVGDIDPENGDTDYNQKFQGKATITADKSSSTAYMELSSLTSEDSAVYYCATGYDYAFDSWGQGTLVTVSS VL: QPVLTQSPSASASLGASVKLTCTLSSQHSSYGITWLQQHPDKAPKCVMYLRSDGSHSKGDGIPDRFSGSSSGAHRYLSISNVQPEDEAIYFCVTYDSTVGVFGSGTQLTVP | 

Source: US20180312579A1 (Genentech, published 2018)
